Source: patent US20240101635A1 (AKSTON BIOSCIENCES, published 2024)
Residue numbers refer to the chain shown, from its start.

B1: insulin-Fc fusion protein of SEQ ID NO: 114 (Fc fusion)
chain: FVNQHLCGSHLVEALALVCGERGFFYTDPAGGGPRRGIVEQCCASVCSLYQLEHYCGGGGAGGGGGEGPKCPVPEIPGAPSVFIFPPKPKDTLSISRTPEVTCLVVDLGPDDSNVQITWFVDNTEMHTAKTRPREEQFNSTYRVVSVLPILHQDWLKGKEFKCKVNSKSLPSAMERTISKAKGQPHEPQVYVLPPTQEELSENKVSVTCLIKGFHPPDIAVEWEITGQPEPENNYQTTPPQLDSDGTYFLYSRLSVDRSHWQRGNTYTCSVSHEALHSHHTQKSLTQSP
notes: homodimer
B2: insulin-Fc fusion protein of SEQ ID NO: 124 (Fc fusion)
chain: FVNQHLCGSHLVEALELVCGERGFHYGGGGGGSGGGGGIVEQCCTSTCSLDQLENYCGGGGGQGGGGQGGGGQGGGGGDCPKCPPPEMLGGPSIFIFPPKPKDTLSISRTPEVTCLVVDLGPDDSDVQITWFVDNTQVYTAKTSPREEQFSSTYRVVSVLPILHQDWLKGKEFKCKVNSKSLPSPIERTISKDKGQPHEPQVYVLPPAQEELSRNKVSVTCLIEGFYPSDIAVEWEITGQPEPENNYRTTPPQLDSDGTYFLYSRLSVDRSRWQRGNTYTCSVSHEALHSHHTQKSLTQSPG
notes: homodimer
B3: insulin-Fc fusion protein of SEQ ID NO: 118 (Fc fusion)
chain: FVNQHLCGSHLVEALALVCGERGFFYTDPAGGGPRRGIVEQCCASVCSLYQLEHYCGGGGAGGGGDCPKCPPPEMLGGPSIFIFPPKPKDTLSISRTPEVTCLVVALGPDDSDVQITWFVDNTQVYTAKTSPREEQFSSTYRVVSVLPILHQDWLKGKEFKCKVNSKSLPSPIERTISKDKGQPHEPQVYVLPPAQEELSRNKVSVTCLIEGFYPSDIAVEWEITGQPEPENNYRTTPPQLDSDGTYFLYSRLSVDRSRWQRGNTYTCSVSHEALHSHHTQKSLTQSPG
notes: homodimer
B4: insulin-Fc fusion protein of SEQ ID NO: 122 (Fc fusion)
chain: FVNQHLCGSHLVEALELVCGERGFHYGGGGGGSGGGGGIVEQCCTSTCSLDQLENYCGGGGGQGGGGQGGGGQGGGGGGEGPKCPVPEIPGAPSVFIFPPKPKDTLSISRTPEVTCLVVDLGPDDSNVQITWFVDNTEMHTAKTRPREEQFNSTYRVVSVLPILHQDWLKGKEFKCKVNSKSLPSAMERTISKAKGQPHEPQVYVLPPTQEELSENKVSVTCLIKGFHPPDIAVEWEITGQPEPENNYQTTPPQLDSDGTYFLYSRLSVDRSHWQRGNTYTCSVSHEALHSHHTQKSLTQSPG
notes: homodimer
B5: insulin-Fc fusion protein of SEQ ID NO: 52 (Fc fusion)
chain: FVNQHLCGSDLVEALALVCGERGFFYTDPTGGGPRRGIVEQCCHSICSLYQLENYCNGGGGAGGGGDCPKCPAPEMLGGPSVFIFPPKPKDTLLIARTPEVTCVVVDLDPEDPEVQISWFVDGKQMQTAKTQPREEQFNGTYRVVSVLPIGHQDWLKGKQFTCKVNNKALPSPIERTISKARGQAHQPSVYVLPPSREELSKNTVSLTCLIKDFFPPDIDVEWQSNGQQEPESKYRTTPPQLDEDGSYFLYSKLSVDKSRWQRGDTFICAVMHEALHNHYTQESLSHSPG
notes: Homodimer; HEK293, Protein A
B6: insulin-Fc fusion protein of SEQ ID NO: 60 (Fc fusion)
chain: B5 chain with N139S
notes: homodimer; also called cNg-S; cNg-NB139-S
B7: insulin-Fc fusion protein of SEQ ID NO: 64 (Fc fusion)
chain: B5 chain with N139K
notes: homodimer; also called cNg-K; cNg-NB139-K
B8: insulin-Fc fusion protein of SEQ ID NO: 62 (Fc fusion)
chain: B5 chain with N139D
notes: homodimer; also called cNg-D; cNg-NB139-D
B9: insulin-Fc fusion protein of SEQ ID NO: 116 (Fc fusion)
chain: FVNQHLCGSHLVEALALVCGERGFFYTDPAGGGPRRGIVEQCCASVCSLYQLEHYCGGGGAGGGGGEGPKCPVPEIPGAPSVFIFPPKPKDTLSISRTPEVTCLVVDLGPDDSNVQITWFVDNTEMHTAKTRPREEQFSSTYRVVSVLPILHQDWLKGKEFKCKVNSKSLPSAMERTISKAKGQPHEPQVYVLPPTQEELSENKVSVTCLIKGFHPPDIAVEWEITGQPEPENNYQTTPPQLDSDGTYFLYSRLSVDRSHWQRGNTYTCSVSHEALHSHHTQKSLTQSPG
notes: homodimer
B10: insulin-Fc fusion protein of SEQ ID NO: 56 (Fc fusion)
chain: FVNQHLCGSDLVEALALVCGERGFFYTDPTGGGPRRGIVEQCCHSICSLYQLENYCNGGGGAGGGGCISPCPVPESLGGPSVFIFPPKPKDILRITRTPEITCVVLDLGREDPEVQISWFVDGKEVHTAKTQPREQQFNSTYRVVSVLPIEHQDWLTGKEFKCRVNHIGLPSPIERTISKARGQAHQPSVYVLPPSPKELSSSDTVTLTCLIKDFFPPEIDVEWQSNGQPEPESKYHTTAPQLDEDGSYFLYSKLSVDKSRWQQGDTFTCAVMHEALQNHYTDLSLSHSPG
notes: only 12% homodimer (aggregated)

How the values were obtained:
[1] = molecular target: T1, human insulin receptor (human, UniProt P06213 28-1382); experiment: competition with biotinylated RHI on IM-9 cells, flow cytometry, 4 C
T1 construct: whole, on cells; Endogenous receptor on IM-9 cells; also called IR
Method: 40 μL of an IM-9 cell suspension (8×10⁶ cells/mL) was then added to each well by multichannel pipette, mixed again gently and incubated on ice for 30 min to allow competitive binding on the insulin receptor on IM-9 cells. Cells were then washed twice with 275 μL of ice-cold FACS wash buffer (HBSS/2 mM EDTA/0.1% Na-azide+0.5% horse serum) by centrifuging the V-bottom plate at 3000 rpm for 3 min and aspirating the supernatant. Cells were then resuspended in 40 μL of FACS staining medium containing 1:100 diluted Streptavidin-PE (Life Technologies) for 20 min on ice. Cells were then washed once with 275 μL of ice-cold FACS buffer and finally fixed with 3% paraformaldehyde for 10 min at room temp. Cells were then washed once with 275 μL of ice-cold FACS buffer and resuspended in 250 μl of FACS buffer for analysis.
The V-bottom plates containing cells were then analyzed on a Guava 8-HT flow cytometer (Millipore). Biotinylated-RHI binding to insulin receptor was quantitated by the median fluorescence intensity (MFI) of the cells on the FACS FL-2 channel for each concentration of the test compound. Control wells were labeled only with biotinylated-RHI and were used to calculate the percent (%) inhibition resulting from each test compound concentration. The % inhibition by test compounds of biotinylated-RHI binding on IM-9 cells was plotted against log concentrations of the test compound, and the resulting IC50 values were calculated using GraphPad Prism (GraphPad Software, La Jolla, CA) for the test compounds. Lower IC50 values of the test compound therefore indicate greater levels of biotinylated-RHI inhibition at lower concentrations indicating stronger binding of the insulin-Fc fusion protein to the insulin receptor. A control compound, such as unlabeled recombinant human insulin (RHI) was also used as an internal standard to generate an RHI IC50 against which a given compound IC50 could be ratioed (IC50(compound)/IC50(RHI)). Lower IC50 ratios have more similar binding to RHI (stronger binding to insulin receptor), while higher IC50 ratios have weaker binding to the insulin receptor relative to RHI.

[2] = molecular target: biotinylated canine FcRn (canine, UniProt A0A8I3PFR8 25-347, biotinylated (site not stated)); experiment: ELISA pH 5.5, fusion protein coated, biotinylated canine FcRn titrated
Method: Insulin-Fc fusion proteins comprising Fc fragments of canine or feline origin were diluted to 10 μg/ml in sodium bicarbonate pH 9.6 buffer and coated in duplicate on Maxisorb ELISA plate strips for 1-2 hours at RT. The strips were then washed 4 times with PBST (PBS/0.1% Tween-20) buffer and blocked with Superblock blocking reagent (ThermoFisher). Strips for FcRn binding were then washed again twice with pH 5.5 MES/NaCl/Tween (50 mM MES/l50 mM NaCl/0.1% Tween-20) buffer before addition of the FcRn reagent (biotinylated canine FcRn; Immunitrack). […] Serial dilutions (1:3× dilutions) of biotinylated FcRn reagent were prepared in pH 5.5 MES/NaCl/Tween/10% Superblock buffer at concentrations from 1000 ng/ml to 0.45 ng/ml and loaded at 100 μL/well using a multichannel pipettor onto the strips coated with the insulin-Fc fusion protein compounds. The assay plate was then incubated for 1 hour at room temperature. FcRn binding strips were washed 4 times with pH 5.5 MES/NaCl/Tween buffer and then loaded with 100 μl/well […] diluted 1:10000 in pH 5.5 MES/NaCl/10% Superblock buffer. After incubating for 45 minutes, strips were washed again 4 times with pH 5.5 MES/NaCl/Tween buffer. TMB was finally added to reveal the bound biotinylated-canine FcRn reagent, and the color development was stopped with the ELISA stop reagent. The plate was read in an ELISA plate reader at a wavelength of 450 nm. The OD values (proportional to the binding of canine-FcRn to the insulin-Fc fusion protein test compounds) were plotted against log concentrations of FcRn added to each well to generate binding curves using GraphPad Prism software. EC50 values for each binding curve were calculated to compare between different compounds.

[3] = molecular target: T2, biotinylated recombinant human Fc(gamma) receptor I (human, UniProt P12314 16-288, biotinylated (site not stated)); experiment: ELISA, fusion protein coated, biotinylated rhFc(gamma)RI at 3000 ng/mL, pH 7.4
T2 construct: Bought reagent, used as surrogate for canine/feline Fc(gamma)RI; also called rhFc(gamma) receptor I; Fc(gamma)RI
Method: (§1) The binding of insulin-Fc fusion proteins to the Fc(gamma) receptor I at pH 7.4 was conducted using an ELISA assay as follows. Since neither canine nor feline Fc(gamma) receptor I was not commercially available, human Fc(gamma) receptor I (i.e., rhFc(gamma) receptor I) was used as a surrogate mammalian receptor. Insulin-Fc compounds were diluted to 10 μg/mL in sodium bicarbonate buffer at pH 9.6 and coated on Maxisorp (Nunc) microtiter plates overnight at 4° C., after which the microplate strips were washed 5 times with PBST (PBS/0.05% Tween-20) buffer and blocked with Superblock blocking reagent (ThermoFisher). Serial dilutions of biotinylated rhFc(gamma) receptor I (recombinant human Fc(gamma)R-I; R&D Systems) were prepared in PBST/10% Superblock buffer from 6000 ng/mL to 8.2 ng/mL and loaded at 100 μL/well onto the microplate strips coated with insulin-Fc fusion protein. The microtiter plate was incubated for 1 hour at room temperature after which the microplate strips were washed 5 times with PBST and then loaded with 100 μL/well of streptavidin-HRP diluted 1:10000 in PBST/10% Superblock buffer. After incubating for 45 min, the microplate strips were washed again 5 times with PBST. TMB was added to reveal the bound Fc(gamma) receptor I proteins and stopped with ELISA stop reagent (Boston Bioproducts). The plate was read in an ELISA plate reader at 450 nm, and the OD values (proportional to the binding of rhFc(gamma) receptor I to insulin-Fc protein) were plotted against log concentrations of rhFc(gamma) receptor I added to each well to generate binding curves using GraphPad Prism software.
Finally, select compounds were tested for their likelihood to interact with the immune system by measuring their Fc(gamma) receptor binding activity according to the procedure of Example 8. Table 19 compares the Fc(gamma) receptor I binding of these insulin-Fc fusion proteins with the Fc(gamma) receptor binding of the insulin-Fc fusion protein of SEQ ID NO: 52.

[4] = molecular target: T2, biotinylated recombinant human …; experiment: ELISA, fusion protein coated, biotinylated rhFc(gamma)RI in solution, pH 7.4
Method: as §1
Low Fc(gamma) receptor binding is most likely to correlate with minimum immunogenicity.

[5] = molecular target: T2, biotinylated recombinant human …; experiment: as above; remark: listed apart in the source
Method: as §1
The insulin-Fc fusion protein of SEQ ID NO: 40 was synthesized in HEK293 cells according to the procedure of Example 1 and purified using a Protein A column according to Example 3. The structure of the insulin-Fc fusion protein was confirmed according to Example 4 by non-reducing and reducing CE-SDS, and the sequence was further identified by LC-MS with glycan removal according to Example 5. The protein yield was 174 mg/L at this stage. The % homodimer for the sequence was measured by size-exclusion chromatography according to Example 6 and was determined to be 98.9% resulting in a homodimer titer of 172 mg/L which meets the manufacturing design criteria.

T2 sequence (P12314 16-288 limits assumed): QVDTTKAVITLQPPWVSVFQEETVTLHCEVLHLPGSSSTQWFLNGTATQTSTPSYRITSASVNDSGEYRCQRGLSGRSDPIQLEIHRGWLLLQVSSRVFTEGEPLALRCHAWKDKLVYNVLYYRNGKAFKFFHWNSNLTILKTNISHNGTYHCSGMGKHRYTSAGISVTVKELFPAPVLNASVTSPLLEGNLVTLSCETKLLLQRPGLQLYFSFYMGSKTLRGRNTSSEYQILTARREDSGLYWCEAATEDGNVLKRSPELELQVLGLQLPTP
T1 sequence (P06213 28-1382): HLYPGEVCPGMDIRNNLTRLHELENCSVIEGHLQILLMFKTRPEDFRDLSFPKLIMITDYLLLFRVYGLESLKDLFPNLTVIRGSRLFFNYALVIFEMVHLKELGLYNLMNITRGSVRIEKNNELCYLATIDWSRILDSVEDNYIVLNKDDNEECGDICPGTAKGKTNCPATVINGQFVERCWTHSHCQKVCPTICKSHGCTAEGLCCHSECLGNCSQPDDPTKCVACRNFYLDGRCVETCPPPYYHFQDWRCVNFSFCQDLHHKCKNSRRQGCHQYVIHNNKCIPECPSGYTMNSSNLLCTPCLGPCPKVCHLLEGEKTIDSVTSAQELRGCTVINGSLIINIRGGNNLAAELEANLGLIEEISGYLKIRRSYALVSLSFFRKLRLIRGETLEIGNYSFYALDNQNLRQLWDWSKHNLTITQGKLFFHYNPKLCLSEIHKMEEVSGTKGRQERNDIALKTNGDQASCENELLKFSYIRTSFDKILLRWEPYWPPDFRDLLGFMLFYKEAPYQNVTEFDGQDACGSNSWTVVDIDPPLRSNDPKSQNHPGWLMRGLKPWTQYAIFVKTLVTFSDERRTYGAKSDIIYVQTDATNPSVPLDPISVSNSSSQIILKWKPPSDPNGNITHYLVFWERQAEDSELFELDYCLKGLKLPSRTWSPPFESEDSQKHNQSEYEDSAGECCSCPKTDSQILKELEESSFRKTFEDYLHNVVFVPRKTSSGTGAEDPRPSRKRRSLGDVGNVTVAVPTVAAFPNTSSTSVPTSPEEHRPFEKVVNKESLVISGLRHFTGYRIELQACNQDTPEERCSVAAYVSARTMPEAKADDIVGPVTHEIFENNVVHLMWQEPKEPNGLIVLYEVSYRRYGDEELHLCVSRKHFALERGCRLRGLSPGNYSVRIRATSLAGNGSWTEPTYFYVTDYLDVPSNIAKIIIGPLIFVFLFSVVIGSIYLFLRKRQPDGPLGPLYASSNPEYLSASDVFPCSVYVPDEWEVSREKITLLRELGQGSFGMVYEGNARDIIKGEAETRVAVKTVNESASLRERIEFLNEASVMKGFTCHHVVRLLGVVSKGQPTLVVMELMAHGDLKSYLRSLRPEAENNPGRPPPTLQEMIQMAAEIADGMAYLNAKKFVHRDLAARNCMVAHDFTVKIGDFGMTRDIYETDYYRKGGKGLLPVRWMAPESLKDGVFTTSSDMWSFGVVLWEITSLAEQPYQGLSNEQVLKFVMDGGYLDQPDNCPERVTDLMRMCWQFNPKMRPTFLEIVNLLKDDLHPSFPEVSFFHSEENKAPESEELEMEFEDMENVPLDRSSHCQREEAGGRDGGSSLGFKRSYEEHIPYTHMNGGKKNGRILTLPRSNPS
Chain of biotinylated canine FcRn (A0A8I3PFR8 entry or part of it): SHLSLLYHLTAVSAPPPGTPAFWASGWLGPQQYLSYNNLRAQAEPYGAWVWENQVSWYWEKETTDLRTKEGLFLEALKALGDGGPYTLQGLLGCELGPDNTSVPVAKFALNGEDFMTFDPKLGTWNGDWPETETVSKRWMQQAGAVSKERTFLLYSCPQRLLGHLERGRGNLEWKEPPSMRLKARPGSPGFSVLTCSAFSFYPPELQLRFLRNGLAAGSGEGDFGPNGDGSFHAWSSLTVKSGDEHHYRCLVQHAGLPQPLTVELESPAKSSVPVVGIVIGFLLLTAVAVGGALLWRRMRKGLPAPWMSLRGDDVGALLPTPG

| Binder | IC50 [1] [µM] | Ratio to SEQ ID NO: 52 [4] [ratio] | other results |
| --- | --- | --- | --- |
| B1 | 3.48 | – | – |
| B2 | – | – | EC50 [2]: 6.92 µg/mL |
| B3 | > 5 | – | – |
| B4 | 2.54 | – | EC50 [2]: 3.11 µg/mL |
| B5 | 0.028 | 1 | OD450 nm Minus Assay Background [3]: 0.371 OD450; OD450 nm at a Fc(gamma)RI concentration of 3000 (ng/mL) [3]: 0.428 OD450; Ratio to SEQ ID NO: 52 [3]: 1 ratio; OD450 nm Minus Assay Background [4]: 0.323 OD450 |
| B6 | – | 0.24 | fold lower Fc(gamma)RI binding than SEQ ID NO: 52 [5]: 4 fold lower |
| B7 | – | 0.2 | – |
| B8 | – | 0.44 | fold of Fc(gamma) receptor binding activity against SEQ ID NO: 60 and SEQ ID NO: 64 [5]: ~2 fold |
| B9 | 0.707 | – | – |
| B10 | > 5 | – | – |
